# Numbering of substitutions follows the chain as printed. Names and notes keep the numbering of the source.
# B1: maize (Zea mays) class I EPSPS variant TIPA (T102I, P106A), pMON42481, ZmTIPA SEQ ID NO:39 (Zea mays; P106A/T102I) (protein)
# chain: AGAEEIVLQPIKEISGTVKLPGSKSLSNRILLLAALSEGTTVVDNLLNSEDVHYMLGALRTLGLSVEADKAAKRAVVVGCGGKFPVEDAKEEVQLFLGNAGIAMRALTAAVTAAGGNATYVLDGVPRMRERPIGDLVVGLKQLGADVDCFLGTDCPPVRVNGIGGLPGGKVKLSGSISSQYLSALLMAAPLALGDVEIEIIDKLISIPYVEMTLRLMERFGVKAEHSDSWDRFYIKGGQKYKSPKNAYVEGDASSASYFLAGAAITGGTVTVEGCGTTSLQGDVKFAEVLEMMGAKVTWTETSVTVTGPPREPFGRKHLKAIDVNMNKMPDVAMTLAVVALFADGPTAIRDVASWRVKETERMVAIRTELTKLGASVEEGPDYCIITPPEKLNVTAIDTYDDHRMAMAFSLAACAEVPVTIRDPGCTRKTFPDYFDVLSTFVKN
# notes: pMON42481
# B2: maize (Zea mays) class I EPSPS variant TIPI (T102I, P106I), pMON42486 (Zea mays; P106I/T102I) (protein)
# chain: B1 chain with A106I
# notes: pMON42486
# B3: maize (Zea mays) class I EPSPS variant TIPV (T102I, P106V), pMON42482 (Zea mays; P106V/T102I) (protein)
# chain: B1 chain with A106V
# notes: pMON42482
# B4: maize (Zea mays) class I EPSPS variant TIPM (T102I, P106M), pMON42484 (Zea mays; P106M/T102I) (protein)
# chain: B1 chain with A106M
# notes: pMON42484
# B5: maize (Zea mays) class I EPSPS variant TIPS (T102I, P106S), pMON70462 (Zea mays; P106S/T102I) (protein)
# chain: B1 chain with A106S
# notes: pMON70462
# B6: maize (Zea mays) class I EPSPS variant TIPT (T102I, P106T), pMON58452, ZmTIPT SEQ ID NO:38 (Zea mays; P106T/T102I) (protein)
# chain: B1 chain with A106T
# notes: pMON58452
# B7: maize (Zea mays) class I EPSPS variant TIPG (T102I, P106G), pMON42480 (Zea mays; P106G/T102I) (protein)
# chain: B1 chain with A106G
# notes: pMON42480
# B8: maize (Zea mays) class I EPSPS variant TIPC (T102I, P106C), pMON42485 (Zea mays; P106C/T102I) (protein)
# chain: B1 chain with A106C
# Columns and labels:
# [1] = molecular target: T1, maize (Zea mays) class I EPSPS, wild type (WT), pMON70461, DNA SEQ ID NO:3 (Zea mays, UniProt O24566); assay: EPSPS steady-state kinetics, wild-type maize EPSPS; type: biochemical
# T1 construct: pMON70461
# T1 sequence (O24566 with tags, fused parts or gaps): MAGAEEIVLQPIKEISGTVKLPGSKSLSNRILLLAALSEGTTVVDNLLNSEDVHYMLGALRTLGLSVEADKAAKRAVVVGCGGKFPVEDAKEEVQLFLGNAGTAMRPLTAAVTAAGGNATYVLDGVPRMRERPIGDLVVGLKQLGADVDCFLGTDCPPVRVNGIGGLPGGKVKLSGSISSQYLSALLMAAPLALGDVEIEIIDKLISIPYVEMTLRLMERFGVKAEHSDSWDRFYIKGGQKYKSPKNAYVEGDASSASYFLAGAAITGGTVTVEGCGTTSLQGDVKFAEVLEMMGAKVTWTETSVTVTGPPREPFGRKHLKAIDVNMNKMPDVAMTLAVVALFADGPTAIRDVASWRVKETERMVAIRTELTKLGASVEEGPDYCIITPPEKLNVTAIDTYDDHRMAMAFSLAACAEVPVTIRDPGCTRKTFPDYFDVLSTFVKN
# Procedure: The wild type and variant EPSPS coding sequences were cloned into a pET-19b base vector (Novagen, Madison, Wis.). The plant (maize) class I EPSPS variants so created were assigned pMON plasmid numbers (Table 2). The variant EPSPS proteins were purified from the E. coli host using the protocols outlined in the pET system manual, 9th edition (Novagen) or by the following method. A single colony or a few microliters from a glycerol stock was inoculated into 4 mL LB medium containing 0.1 mg/mL carbenicillin antibiotic. The culture was incubated with shaking at 37 C for 4 hours. The cultures were stored at 4° C. overnight. The following morning, 1 mL of the overnight culture was used to inoculate 100 mL of fresh LB medium containing 0.1 mg/mL carbenicillin. The cultures were incubated with shaking at 37 C for 4-5 hours, then the cultures were placed at 4° C. for 5-10 minutes. The cultures were then induced with IPTG (1 mM final concentration) and incubated with shaking at 30 C for 4 hours or 20° C. overnight. The cells were harvested by centrifugation at 7000 rpm for 20 minutes at 4° C. The supernatant was removed and the cells were frozen at −70° C. until further use. The proteins were extracted by resuspending the cell pellet in BugBuster reagent (Novagen) using 5 mL reagent per gram of cells. Benzonase (125 Units) was added to the resuspension and the cell suspension was then incubated on a rotating mixer for 20 minutes at room temperature. The cell debris was removed by centrifugation at 10,000 rpm for 20 minutes at room temperature. The supernatant was passed through a 0.45 μm syringe-end filter and transferred to a fresh tube. A pre-packed columns containing 1.25 mL of His-Bind resin was equilibrated with 10 mL of 5 mM imidazole, 0.5 M NaCl, 20 mM Tris-HCl pH 7.9 (1× Binding Buffer). The column was then loaded with the prepared cell extract. After the cell extract had drained, the column was then washed with 10 mL of 1× Binding Buffer, followed with 10 mL of 60 mM imidazole, 0.5 M NaCl, 20 mM Tris-HCl pH 7.9 (1× Wash Buffer). […]
# [2] = tested on: E. coli EPSPS, native; settings: read-out: apparent Km for PEP; native enzyme; cited from earlier work
# [3] = tested on: E. coli EPSPS variant, alanine for the glycine at position 96 (G96A); settings: read-out: apparent Km for PEP; glyphosate-resistant isolate; cited from earlier work
# [4] = substrate: C=C(OP(=O)(O)O)C(=O)O; assay: EPSPS steady-state kinetics, TIPA variant; type: biochemical, maize (Zea mays); settings: other: pH 7.0, 1 mM shikimate-3-phosphate, Table 2
# Description: The double variants of the present invention were made using pMON58452 (FIG. 5) as the template. This pMON58452 EPSPS gene template contains the maize EPSPS double variant T102I, P106T (TIPT) that was constructed by mutagenesis of pMON70467 with the mutagenesis primers mEmut-9-U and mEmut-10-L. The various mutagenesis primer sequences were designed and then were synthesized by Invitrogen Corp., Custom Primers and used in combination in a PCR to create the variant EPSPS coding sequences. The PCR was set up in a 50 μl reaction in the following manner: dH2O 38 μl; 2 mM dNTP 1 μL; 10× buffer 5 μL; pMON58452 1 μL (10 ng); primer-U 2 μL; primer-L 2 μL; pfu Turbo enzyme 1 μL. PCR was carried out on a MJ Research PTC-200 thermal cycler using the following program: Step 1—94° C. for 30 seconds; Step 2—94° C. for 30 seconds; Step 3—55° C. for 1 minute; Step 4—68° C. for 14 minute; Step 5—go to step 2, 16 times; Step 6—End. At the end of the PCR, 1 μl of the restriction enzyme DpnI was added to each 50 μl of PCR reaction and the mixture was incubated at 37° C. for 1 hour. The proline (106) amino acid codon of pMON58452 was substituted in subsequent steps to provide additional variants that include TWO (primer P106G-U, SEQ ID NO:14 and -L, SEQ ID NO:15), TIPA (primer P106A-U, SEQ ID NO:16 and -L, SEQ ID NO:17), TIPV (primer P106V-U, SEQ ID NO:18 and -L, SEQ ID NO:19), TIPL (primer P106L-U, SEQ ID NO:20 and -L, SEQ ID NO:21), TIPI (primer P106I-U, SEQ ID NO:22 and -L, SEQ ID NO:23), TIPM (primer P106M-U, SEQ ID NO:24 and -L, SEQ ID NO:25), and TIPC (primer P106C-U, SEQ ID NO:26 and -L, SEQ ID NO:27). The double variants of the gene encoding the EPSPS protein were generated using the PCR conditions described above.
# The wild type and variant EPSPS coding sequences were cloned into a pET-19b base vector (Novagen, Madison, Wis.). […] The variant EPSPS proteins were purified from the E. coli host using the protocols outlined in the pET system manual, 9th edition (Novagen) or by the following method. […]
# [5] = substrate: C=C(OP(=O)(O)O)C(=O)O; assay: EPSPS steady-state kinetics, TIPI variant; type: biochemical, maize (Zea mays); settings: other: pH 7.0, 1 mM shikimate-3-phosphate
# Description: (§1) The double variants of the present invention were made using pMON58452 (FIG. 5) as the template. This pMON58452 EPSPS gene template contains the maize EPSPS double variant T102I, P106T (TIPT) that was constructed by mutagenesis of pMON70467 with the mutagenesis primers mEmut-9-U and mEmut-10-L. The various mutagenesis primer sequences were designed and then were synthesized by Invitrogen Corp., Custom Primers and used in combination in a PCR to create the variant EPSPS coding sequences. The PCR was set up in a 50 μl reaction in the following manner: dH2O 38 μl; 2 mM dNTP 1 μL; 10× buffer 5 μL; pMON58452 1 μL (10 ng); primer-U 2 μL; primer-L 2 μL; pfu Turbo enzyme 1 μL. PCR was carried out on a MJ Research PTC-200 thermal cycler using the following program: Step 1—94° C. for 30 seconds; Step 2—94° C. for 30 seconds; Step 3—55° C. for 1 minute; Step 4—68° C. for 14 minute; Step 5—go to step 2, 16 times; Step 6—End. At the end of the PCR, 1 μl of the restriction enzyme DpnI was added to each 50 μl of PCR reaction and the mixture was incubated at 37° C. for 1 hour. […]
# [6] = substrate: C=C(OP(=O)(O)O)C(=O)O; assay: EPSPS steady-state kinetics, TIPV variant; type: biochemical, maize (Zea mays); settings: other: pH 7.0, 1 mM shikimate-3-phosphate
# Procedure: (§2) The variant EPSPS proteins were purified from the E. coli host using the protocols outlined in the pET system manual, 9th edition (Novagen) or by the following method. A single colony or a few microliters from a glycerol stock was inoculated into 4 mL LB medium containing 0.1 mg/mL carbenicillin antibiotic. The culture was incubated with shaking at 37 C for 4 hours. The cultures were stored at 4° C. overnight. The following morning, 1 mL of the overnight culture was used to inoculate 100 mL of fresh LB medium containing 0.1 mg/mL carbenicillin. The cultures were incubated with shaking at 37 C for 4-5 hours, then the cultures were placed at 4° C. for 5-10 minutes. The cultures were then induced with IPTG (1 mM final concentration) and incubated with shaking at 30 C for 4 hours or 20° C. overnight. The cells were harvested by centrifugation at 7000 rpm for 20 minutes at 4° C. The supernatant was removed and the cells were frozen at −70° C. until further use. The proteins were extracted by resuspending the cell pellet in BugBuster reagent (Novagen) using 5 mL reagent per gram of cells. Benzonase (125 Units) was added to the resuspension and the cell suspension was then incubated on a rotating mixer for 20 minutes at room temperature. The cell debris was removed by centrifugation at 10,000 rpm for 20 minutes at room temperature. […]
# [7] = substrate: C=C(OP(=O)(O)O)C(=O)O; assay: EPSPS steady-state kinetics, TIPM variant; type: biochemical, maize (Zea mays); settings: other: pH 7.0, 1 mM shikimate-3-phosphate
# Procedure: as §2
# [8] = substrate: C=C(OP(=O)(O)O)C(=O)O; assay: EPSPS steady-state kinetics, TIPS variant; type: biochemical, maize (Zea mays); settings: other: pH 7.0, 1 mM shikimate-3-phosphate
# Description: Mutations were made using plant EPSPS DNA coding sequence template as an example of class I EPSPSs. […] All the variants were made using the PCR-based QuickChange™ Site-directed Mutagenesis Kit (Stratagene, La Jolla, Calif., Cat. No. 200518) following the manufactures instructions. The DNA sequence of each mutagenesis primer was designed, and then ordered from Invitrogen Corp., Custom Primers (Carlsbad, Calif.). Mutagenesis of a maize wild-type DNA molecule (SEQ ID NO:3) encoding the EPSPS enzyme was performed using pMON70461 (FIG. 3) as the template. pMON70461 contains the unmodified wild-type maize EPSPS coding sequence. […] The single EPSPS variants were created by mutagenesis of the maize wild-type EPSPS DNA coding sequence as controls for measuring the efficacy of the double variant EPSPSs.
# The wild type and variant EPSPS coding sequences were cloned into a pET-19b base vector (Novagen, Madison, Wis.). […] The variant EPSPS proteins were purified from the E. coli host using the protocols outlined in the pET system manual, 9th edition (Novagen) or by the following method. […] Protein concentration was determined using Bio-Rad protein assay (Bio-Rad Laboratories, CA). […] The samples were read at OD595 after ˜5 minutes using a spectraMAX 250 plate reader (Molecular Devices Corporation, Sunnyvale, Calif.) and compared to the standard curve. […]
# [9] = substrate: C=C(OP(=O)(O)O)C(=O)O; assay: EPSPS steady-state kinetics, TIPT variant; type: biochemical, maize (Zea mays); settings: other: pH 7.0, 1 mM shikimate-3-phosphate
# Description: as §1
# [10] = substrate: C=C(OP(=O)(O)O)C(=O)O; assay: EPSPS steady-state kinetics, TIPG variant; type: biochemical, maize (Zea mays); settings: other: pH 7.0, 1 mM shikimate-3-phosphate
# Description: as §1
# [11] = substrate: C=C(OP(=O)(O)O)C(=O)O; assay: purified protein, by the assay type; settings: other: pH 7.0, 1 mM shikimate-3-phosphate
# Description: as §1
molecule,measurement,setting,value
"C=C(OP(=O)(O)O)C(=O)O [PEP, phosphoenolpyruvate]",kcat,[1]; Table 5,8.8 ± 0.5 s⁻¹
same,Km,"[1]; pH 7.0, 1 mM shikimate-3-phosphate, Table 2, read-out: Km-PEP",27 ± 4 µM
same,Km,[2],10 µM
same,Km,[3],220 µM
B1,Km,[4],10.2 ± 1.1 µM
same,kcat,[4],2.1 ± 0.1 s⁻¹
same,kcat/Km,[4],0.2 µM^−1s^−1
B2,Km,[5],60.3 ± 2.8 µM
B3,Km,[6],109.3 ± 12.9 µM
B4,Km,[7],143.3 ± 12.6 µM
B5,Km,[8],10.6 ± 1.6 µM
B6,Km,[9],11.2 ± 1.8 µM
B7,Km,[10],23.0 ± 3.7 µM
B8,Km,[11],47.0 ± 4.0 µM
